Measurements taken from paper PMC8523169, “Competitive binding of MatP and topoisomerase IV to the MukB hinge domain” (eLife, 2021).
Substitutions are numbered along the chain they refer to. Names may count otherwise.

T1: MatPΔ18C (1–132), C-terminal 6xHis-tag (E. coli, UniProt P0A8N0 1-132)
T1 construct: MatP, E. coli, residues 1-132 (deletion of the 18 C-terminal residues); also called MatPΔ18C-His; MatP2; source: overexpressed, purified as previously published (Nolivos et al., 2016) with an added SEC step; not shown: His6, C-terminal, kept
T1 sequence (looked up): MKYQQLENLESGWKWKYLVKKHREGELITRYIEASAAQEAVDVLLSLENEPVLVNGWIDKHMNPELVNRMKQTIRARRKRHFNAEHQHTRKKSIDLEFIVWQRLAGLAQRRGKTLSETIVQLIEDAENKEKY

T2: full-length ParC, N-terminal 6xHis-tag (E. coli, UniProt P0AFI2 1-752)
T2 construct: ParC subunit of topoisomerase IV, E. coli, full length; also called His-ParC; ParC2; source: overexpressed, purified as previously published (Nolivos et al., 2016) with an added SEC step; not shown: His6, N-terminal, kept
T2 sequence (looked up): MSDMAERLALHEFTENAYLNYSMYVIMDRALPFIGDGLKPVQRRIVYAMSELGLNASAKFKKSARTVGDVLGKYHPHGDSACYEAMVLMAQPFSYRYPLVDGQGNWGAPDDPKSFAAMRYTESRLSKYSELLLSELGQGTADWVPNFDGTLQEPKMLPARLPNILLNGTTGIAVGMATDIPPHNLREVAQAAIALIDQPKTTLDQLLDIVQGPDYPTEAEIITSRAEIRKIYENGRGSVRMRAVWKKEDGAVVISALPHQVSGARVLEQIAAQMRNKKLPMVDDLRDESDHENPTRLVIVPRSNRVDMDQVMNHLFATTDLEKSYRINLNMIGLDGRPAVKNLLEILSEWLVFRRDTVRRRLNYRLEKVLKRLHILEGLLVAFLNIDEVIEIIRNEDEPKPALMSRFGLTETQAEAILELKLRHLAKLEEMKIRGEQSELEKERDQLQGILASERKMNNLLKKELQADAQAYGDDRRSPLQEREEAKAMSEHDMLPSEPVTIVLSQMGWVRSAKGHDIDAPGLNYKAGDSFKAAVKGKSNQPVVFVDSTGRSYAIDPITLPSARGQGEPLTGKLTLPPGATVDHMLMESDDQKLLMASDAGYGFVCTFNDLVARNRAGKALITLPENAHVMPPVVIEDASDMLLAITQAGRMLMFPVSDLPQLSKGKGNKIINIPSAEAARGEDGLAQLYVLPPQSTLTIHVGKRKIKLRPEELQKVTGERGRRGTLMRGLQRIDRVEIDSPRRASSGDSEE

B1: MukB short hinge (SH; amino acid residues 667–779) (domain or fragment, E. coli, UniProt P22523 667-779, looked up)
chain: GGSEDQRLNALAERFGGVLLSEIYDDVSLEDAPYFSALYGPSRHAIVVPDLSQVTEHLEGLTDCPEDLYLIEGDPQSFDDSVFSVDELEKAVVVKIADRQWRYSRFPEVPLFG
notes: MukB, E. coli, residues 667-779: hinge lacking the entire coiled-coil; Monomer/dimer mix at tens of µM by nMS; also called SH-His; SH MukB; source: overexpressed, purified (TALON, HiTrap Q XL, SEC); not shown: His6, C-terminal, kept
B2: His-ParC R705E R729A (enzyme, E. coli, UniProt P0AFI2 1-752, looked up)
chain: T2 sequence (looked up) with R705E, R729A
notes: ParC, E. coli, full length, with two substitutions; also called ParC^EA; source: site-directed mutagenesis, purified using the same protocol as ParC; not shown: His6, N-terminal, kept
B3: MatP^4E (K71E, Q72E, R75E, and R77E) (domain or fragment, E. coli, UniProt P0A8N0 1-132, looked up)
chain: T1 sequence (looked up) with K71E, Q72E, R75E, R77E
notes: MatP, E. coli, residues 1-132 (MatPΔ18C) with four substitutions; also called MatP K71E, Q72E, R75E, R77E; source: site-directed mutagenesis, purified using the same protocol as MatP
B4: ParE-His (enzyme, E. coli, UniProt P20083 1-630, looked up)
chain: MTQTYNADAIEVLTGLEPVRRRPGMYTDTTRPNHLGQEVIDNSVDEALAGHAKRVDVILHADQSLEVIDDGRGMPVDIHPEEGVPAVELILCRLHAGGKFSNKNYQFSGGLHGVGISVVNALSKRVEVNVRRDGQVYNIAFENGEKVQDLQVVGTCGKRNTGTSVHFWPDETFFDSPRFSVSRLTHVLKAKAVLCPGVEITFKDEINNTEQRWCYQDGLNDYLAEAVNGLPTLPEKPFIGNFAGDTEAVDWALLWLPEGGELLTESYVNLIPTMQGGTHVNGLRQGLLDAMREFCEYRNILPRGVKLSAEDIWDRCAYVLSVKMQDPQFAGQTKERLSSRQCAAFVSGVVKDAFILWLNQNVQAAELLAEMAISSAQRRMRAAKKVVRKKLTSGPALPGKLADCTAQDLNRTELFLVEGDSAGGSAKQARDREYQAIMPLKGKILNTWEVSSDEVLASQEVHDISVAIGIDPDSDDLSQLRYGKICILADADSDGLHIATLLCALFVKHFRALVKHGHVYVALPPLYRIDLGKEVYYALTEEEKEGVLEQLKRKKGKPNVQRFKGLGEMNPMQLRETTLDPNTRRLVQLTIDDEDDQRTDAMMDMLLAKKRSEDRRNWLQEKGDMAEIEV
notes: ParE subunit of topoisomerase IV, E. coli; source: overexpressed, purified (TALON, HiTrap Q XL, SEC)

Columns and labels:
[1] = target: the molecule itself; experiment: native MS; proteins buffer exchanged into 200 mM ammonium acetate pH 8.0, alone or mixed in different ratios (two or three components, with or without 50 bp DNA), 10 min on ice
[2] = target: T1, MatPΔ18C (1–132), C-terminal 6xHis-tag; experiment: as above; conditions: both partners purified
[3] = target: T2, full-length ParC, N-terminal 6xHis-tag; experiment: SEC; topoIV reconstitution: equimolar ParC and ParE, 30 min on ice, verified in analytical SEC; conditions: both partners purified

| Binder | stoichiometry N [1] | binding result [2] | binding result [3] |
| --- | --- | --- | --- |
| B1 | 2 | binds |  |
| B2 | 2 |  |  |
| B3 | 2 |  |  |
| B4 | 2 |  | binds |
